This note sets out measurements from publication doi:10.1101/2021.04.03.438258.

The assay addresses SARS-CoV-2 HexaPro S (SARS-CoV-2). The experiment in a line: cryo-EM structure.

As usually defined, the stoichiometry N is the number of molecules, sites or subunits per partner or assembly. “SARS-CoV-2 HexaPro S (domain or fragment)” gave a stoichiometry N of 3.
